Substrate: O=c1oc(/C=C/c2ccc(O)c(O)c2)cc(O)c1O
Test: bioluminescence, initial light intensity, Michaelis-Menten fit
Assay type: biochemical, Neonothopanus nambi
Settings: 50 nM enzyme, 200 mM Na-phosphate pH 8.0, 500 mM Na2SO4, 0.1% DDM, room temperature, luciferin 2 nM to 50 μM

B1: recombinant N. nambi luciferase (nnLuz) (Neonothopanus nambi) (protein)
chain: MRINISLSSLFERLSKLSSRSIAITCGVVLASAIAFPIIRRDYQTFLEVGPSYAPQNFRGYIIVCVLSLFRQEQKGLAIYDRLPEKRRWLADLPFREGTRPSITSHIIQRQRTQLVDQEFATRELIDKVIPRVQARHTDKTFLSTSKFEFHAKAIFLLPSIPINDPLNIPSHDTVRRTKREIAHMHDYHDCTLHLALAAQDGKEVLKKGWGQRHPLAGPGVPGPPTEWTFLYAPRNEEEARVVEMIVEASIGYMTNDPAGKIVENAK
notes: expressed in Pichia pastoris GS115; membrane protein solubilized and purified in DDM
B1 was tested, and the Km was 1.09 ± 0.06 µM.

Source: publication PMC7946651, “The Recombinant Luciferase of the Fungus Neonothopanus nambi: Obtaining and Properties” (Doklady. Biochemistry and Biophysics, 2021)
